Data set [1] deals with tubulin (soluble tubulin dimers, bovine brain) (bovine) (UniProt Q6B856). As to the kind of experiment: SEC; polypeptides incubated at the indicated molar ratio with 30 µM tubulin 10 min on ice; Superdex 200 10/300 GL, BRB20 pH 7.1 with 125 mM KCl and 10 mM imidazole (or increasing KCl, Figure 3C), eluted at 4 °C. On the technique in general: In gel filtration, larger molecules generally elute earlier.

The target is the same in data set [2].
Data set [3] has as its target Taxol-stabilized microtubules (polymerized bovine brain tubulin) (bovine) (UniProt Q6B856). Description: co-sedimentation; 0.4 µM dimeric constructs with increasing concentrations of Taxol-stabilized microtubules, 37 °C 20 min, centrifuged at 100 k rpm; supernatant and pellet by SDS-PAGE and densitometry.
Data set [4] deals with the molecule itself. Description: cross-linking; 0.5 µM dimeric constructs in BRB20 with 125 mM NaCl and 1 mM DTT, 0.5% glutaraldehyde on ice for 2 h; SDS-PAGE and colloidal Coomassie staining.
Data set [5] has as its target T1, Taxol-stabilized microtubules (polymerized bovine brain tubulin) (bovine, UniProt Q6B856 1-445). Description: co-sedimentation; 0.4 µM dimeric constructs with increasing concentrations of Taxol-stabilized microtubules, 37 °C 20 min, centrifuged at 100 k rpm; supernatant and pellet by SDS-PAGE and densitometry. The note with it: both partners purified.
Data set [6] addresses T1, Taxol-stabilized microtubules …. Description: co-sedimentation; 0.1 µM C-terminal GFP-tagged constructs with increasing concentrations of Taxol-stabilized microtubules, 37 °C 20 min, centrifuged; depletion from the supernatant monitored by fluorimetry. The note with it: both partners purified.

The record followed here is PMC3712912, “Dynactin Subunit p150^Glued Is a Neuron-Specific Anti-Catastrophe Factor” (PLoS Biology, 2013).

As for “p150 Nt-GCN4 (human p150Glued amino acids 1–210, GCN4 coiled-coil, linker, C-terminal 6×-His) (from UniProt Q14203-1 1-210) (domain or fragment)”, the stoichiometry N (p150∶tubulin molar ratio) in data set [1] was 1. In data set [2], this molecule displayed a catastrophe frequency, TIRF elongation assay from GMPCPP seeds, 100–200 nM p150 Nt-GCN4 (fold reduction) of 4 fold and a microtubule polymerization rate, TIRF elongation assay from GMPCPP seeds, 100–200 nM p150 Nt-GCN4 of 2 fold.

As to “Δ5–7 Nt-GCN4 (p150Glued amino acids 1–210 deleted for exons 5–7, GCN4 coiled-coil, linker, C-terminal 6×-His) (from UniProt Q14203-1 1-210) (domain or fragment)”, the Kd – broadly, the concentration at which binding is half-saturated – in data set [3] was found to be 0.47 µM.

B1: p135 Nt-GCN4 (MMRQ, p150Glued amino acids 139–210, GCN4 coiled-coil, linker, C-terminal 6×-His) (domain or fragment)
chain: MMRQAPTARKTTTRRPKPTRPASTGVAGASSSLGPSGSASAGELSSSEPSTPAQTPLAAPIIPTPVLTSPGAVPPLVMKQLEDKVEELLSKNYHLENEVARLKKLVGEAAAADPPVAT
notes: N-terminal MMRQ replicating the endogenous expressed p135 spliceform of p150Glued (DCTN1); p150Glued (DCTN1), human, amino acids 139-210 of p150Glued, NM_004082.4; lacks the CAP-Gly domain and exon 5; short linker before the C-terminal 6×-His tag; Recapitulates the neuronally enriched p135 splice form; also called p135 dimer; source: Rosetta E. coli, purified (Ni Sepharose, Mono S, Superdex 200); …
For the molecule B1, in data set [4], the binding result is reported as “binds”.

B2: p150 Nt-GCN4 (human p150Glued amino acids 1–210, GCN4 coiled-coil, linker, C-terminal 6×-His) (domain or fragment)
chain: MAQSKRHVYSRTPSGSRMSAEASARPLRVGSRVEVIGKGHRGTVAYVGATLFATGKWVGVILDEAKGKNDGTVQGRKYFTCDEGHGIFVRQSQIQVFEDGADTTSPETPDSSASKVLKREGTDTTAKTSKLRGLKPKKAPTARKTTTRRPKPTRPASTGVAGASSSLGPSGSASAGELSSSEPSTPAQTPLAAPIIPTPVLTSPGAVPPLVMKQLEDKVEELLSKNYHLENEVARLKKLVGEAAAADPPVAT
notes: p150Glued (DCTN1), human, amino acids 1-210, NM_004082.4; holds the CAP-Gly and basic domains; short linker before the C-terminal 6×-His tag; Dimer through the GCN4 coiled-coil that replaces CC1 of p150Glued; vector pET-29a; also called dimeric p150 Nt-GCN4; p150 Nt-GCN4-His; source: Rosetta E. coli, purified (Ni Sepharose, Mono S, Superdex 200); not shown: His6, C-terminal, kept
As to B2, the Kd in data set [5] was found to be 0.29 µM. Further, the binding result in data set [4] is recorded as “binds”.

B3: Q74P Nt-GCN4 (p150 Nt-GCN4 with the Perry syndrome mutation Q74P) (domain or fragment)
chain: MAQSKRHVYSRTPSGSRMSAEASARPLRVGSRVEVIGKGHRGTVAYVGATLFATGKWVGVILDEAKGKNDGTVPGRKYFTCDEGHGIFVRQSQIQVFEDGADTTSPETPDSSASKVLKREGTDTTAKTSKLRGLKPKKAPTARKTTTRRPKPTRPASTGVAGASSSLGPSGSASAGELSSSEPSTPAQTPLAAPIIPTPVLTSPGAVPPLVMKQLEDKVEELLSKNYHLENEVARLKKLVGEAAAADPPVAT
notes: p150Glued (DCTN1), human, amino acids 1-210, NM_004082.4, with the disease mutation Q74P; short linker before the C-terminal 6×-His tag; also called Q74P p150 Nt-GCN4; source: Rosetta E. coli, purified immediately before experimentation with a final gel filtration step
For B3, in data set [4], the binding result is listed as “binds”.

B4: p150 Nt-GCN4 with C-terminal EGFP-6×-His (domain or fragment)
chain: MAQSKRHVYSRTPSGSRMSAEASARPLRVGSRVEVIGKGHRGTVAYVGATLFATGKWVGVILDEAKGKNDGTVQGRKYFTCDEGHGIFVRQSQIQVFEDGADTTSPETPDSSASKVLKREGTDTTAKTSKLRGLKPKKAPTARKTTTRRPKPTRPASTGVAGASSSLGPSGSASAGELSSSEPSTPAQTPLAAPIIPTPVLTSPGAVPPLVMKQLEDKVEELLSKNYHLENEVARLKKLVGEAAAADPPVAT
notes: p150Glued (DCTN1), human, amino acids 1-210, NM_004082.4; short linker, followed by EGFP-6×-His; also called C-terminal GFP-tagged dimeric construct; source: Rosetta E. coli, purified; not shown: EGFP, C-terminal, kept
Turning to B4, binding in data set [6] was put at a Kd of 0.34 µM.

B5: p150 Nt with C-terminal EGFP-6×-His (domain or fragment, human)
chain: MAQSKRHVYSRTPSGSRMSAEASARPLRVGSRVEVIGKGHRGTVAYVGATLFATGKWVGVILDEAKGKNDGTVQGRKYFTCDEGHGIFVRQSQIQVFEDGADTTSPETPDSSASKVLKREGTDTTAKTSKLRGLKPKKAPTARKTTTRRPKPTRPASTGVAGASSSLGPSGSASAGELSSSEPSTPAQTPLAAPIIPTPVLTSPGAVPPLAAAADPPVAT
notes: p150Glued (DCTN1), human, amino acids 1-210, NM_004082.4; short linker, followed by EGFP-6×-His; also called C-terminal GFP-tagged monomeric construct; source: Rosetta E. coli, purified; not shown: EGFP, C-terminal, kept
B5: in data set [6], binding was characterised by a dissociation constant (Kd) of 0.89 µM.
